Measurements: patent US20160194653A1

Biological target: GAL4 activation domain-HAB1 fusion protein (UniProt Q9CAJ0)
Assay: cell-based or functional assay

Sequence of UniProt Q9CAJ0 (Q9CAJ0 23-511 limits assumed): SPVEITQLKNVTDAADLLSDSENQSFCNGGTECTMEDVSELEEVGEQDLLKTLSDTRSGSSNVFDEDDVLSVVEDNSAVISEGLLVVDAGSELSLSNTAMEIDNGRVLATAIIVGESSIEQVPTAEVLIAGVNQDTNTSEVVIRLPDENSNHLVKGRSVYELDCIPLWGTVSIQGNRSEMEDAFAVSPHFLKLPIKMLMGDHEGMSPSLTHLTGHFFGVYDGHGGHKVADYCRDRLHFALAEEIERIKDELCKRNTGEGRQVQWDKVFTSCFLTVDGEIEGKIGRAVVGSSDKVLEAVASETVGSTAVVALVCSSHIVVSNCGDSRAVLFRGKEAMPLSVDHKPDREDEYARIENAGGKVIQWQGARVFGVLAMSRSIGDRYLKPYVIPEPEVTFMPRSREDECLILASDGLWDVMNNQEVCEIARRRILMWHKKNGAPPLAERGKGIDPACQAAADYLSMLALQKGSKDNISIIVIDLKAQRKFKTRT

For “PYR1 mutant A160C (from UniProt P04386 1-147) (receptor)”, the Minimal conc. For ABA response was 0.25 µM.
In the case of “PYR1 mutant A160I (from UniProt P04386 1-147) (receptor)”, the Minimal conc. For ABA response is reported as 0.25 µM.
Work on “PYR1 mutant A160V (from UniProt P04386 1-147) (receptor)” yielded a Minimal conc. For ABA response of 0.25 µM.
“PYR1 mutant E141C (from UniProt P04386 1-147) (receptor)” showed a Minimal conc. For ABA response of 0.5 µM.
For “PYR1 mutant E141I (from UniProt P04386 1-147) (receptor)”, the Minimal conc. For ABA response was 0.25 µM.
Work on “PYR1 mutant E141L (from UniProt P04386 1-147) (receptor)” yielded a Minimal conc. For ABA response of 0.25 µM.
Substance “PYR1 mutant E141M (from UniProt P04386 1-147) (receptor)” has a Minimal conc. For ABA response of 0.25 µM.
Substance “PYR1 mutant E141N (from UniProt P04386 1-147) (receptor)” has a Minimal conc. For ABA response of 0.5 µM.
With “PYR1 mutant E141T (from UniProt P04386 1-147) (receptor)” the Minimal conc. For ABA response was 0.5 µM.
Work on “PYR1 mutant E141V (from UniProt P04386 1-147) (receptor)” yielded a Minimal conc. For ABA response of 0.5 µM.
Work on “PYR1 mutant E141W (from UniProt P04386 1-147) (receptor)” yielded a Minimal conc. For ABA response of 0.5 µM.
“PYR1 mutant E141Y (from UniProt P04386 1-147) (receptor)” showed a Minimal conc. For ABA response of 0.25 µM.
“PYR1 mutant F61L (from UniProt P04386 1-147) (receptor)” showed a Minimal conc. For ABA response of 0.25 µM.
In the case of “PYR1 mutant F61M (from UniProt P04386 1-147) (receptor)”, the Minimal conc. For ABA response is reported as 0.25 µM.
“PYR1 mutant I110C (from UniProt P04386 1-147) (receptor)” was tested, and the Minimal conc. For ABA response was 0.25 µM.
“PYR1 mutant I110S (from UniProt P04386 1-147) (receptor)” was tested, and the Minimal conc. For ABA response was 0.5 µM.
“PYR1 mutant V81I (from UniProt P04386 1-147) (receptor)” gave a Minimal conc. For ABA response of 0.25 µM.
“PYR1 mutant V81Y (from UniProt P04386 1-147) (receptor)” showed a Minimal conc. For ABA response of 0.25 µM.
For “PYR1F61L, A160C (from UniProt P04386 1-147) (receptor)”, the uracil-independent growth (URA3 reporter, yeast two-hybrid) on medium with ABA was 50 nM.
“PYR1F61L, V81I, I110C, A160V (from UniProt P04386 1-147) (receptor)” gave a uracil-independent growth (URA3 reporter, yeast two-hybrid) on medium with ABA of 50 nM.
“PYR1F61M, A160V (from UniProt P04386 1-147) (receptor)” showed a uracil-independent growth (URA3 reporter, yeast two-hybrid) on medium with ABA of 50 nM.
In the case of “PYR1F61M, I110S, A160V (from UniProt P04386 1-147) (receptor)”, the uracil-independent growth (URA3 reporter, yeast two-hybrid) on medium with ABA is reported as 50 nM.
